Measurements published in FireProtDB (doi:10.1021/bi010636i).
Where “and” joins values, the source holds several entries; their conditions need not be identical. Identical values can stand only once.

B1: Cytochrome b5 type B, P04166 (parent)
chain: MATPEASGSGRNGQGSDPAVTYYRLEEVAKRNTAEETWMVIHGRVYDITRFLSEHPGGEEVLLEQAGADATESFEDVGHSPDAREMLKQYYIGDVHPNDLKPKDGDKDPSKNNSCQSSWAYWIVPIVGAILIGFLYRHFWADSKSS

Variants of: B1
Conditions: Rattus norvegicus, pH 7, CD, potassium phosphate buffer, transition: 2, reversible: yes, structure 1B5M, whole UniProt chain shown; for denaturant midpoint (higher = more stable): 25 °C, GdnHCl; for Tm / change of melting temperature, mutant - wild type (higher = more stable): Thermal

Variant	denaturant midpoint (higher = more stable)	Tm [°C]	change of melting temperature, mutant - wild type (higher = more stable) [°C]
MATPEASGSGRNGQGSDPAVTYYRLEEVAKRNTSEETWMVIHGRVYDLTRFLSEHPGGEEVLREQAGADATESFEDVGHSPDAREMLKQYYIGDVHPNDLKPKDGDKDPSKNNSCQSSWAYWIVPIVGAILIGFLYRHFWADSKSS [A34S I48L L63R]	3.34 M and 3.33 M	81.8	-5.2
MATPEASGSGRNGQGSDPAVTYYRLEEVAKRNTSEETWMVIHGRVYDITRFLSEHPGGEEVLREQAGADATESFEDVGHSPDAREMLKQYYIGDVHPNDLKPKDGDKDPSKNNSCQSSWAYWIVPIVGAILIGFLYRHFWADSKSS [A34S L63R]	3.56 M and 3.52 M	83.3	-3.7
MATPEASGSGRNGQGSDPAVTYYRLEEVAKRNTAEETWMVIHGRVYDLTRFLSEHPGGEEVLLEQAGADATESFEDVGHSPDAREMLKQYYIGDVHPNDLKPKDGDKDPSKNNSCQSSWAYWIVPIVGAILIGFLYRHFWADSKSS [I48L]	3.93 M and 3.91 M	85.7	-1.3
